Kd, koff and kon data for seven molecules are collected here from patent publication US20230272055A1 (Incyte, published 2023).

B1: anti-mutCALR antibody clone 48 (antibody, human IgG1, lambda, V domains shown)
VH: EVQLVQSGAEVKKPGSSVKVSCKASGGTFSSYAISWVRQAPGQGLEWMGGIIPIFGTANYAQKFQGRVTITADESTSTAYMELSSLRSEDTAVYYCASSPLRGSGWYWHYYYGMDVWGQGTTVTVSS
VL: SYVLTQPPSVSVAPGKTARITCGGNNIGSKSVHWYQQKPGQAPVLVIYQDRKRPSGIPERFSGSNSGNTATLTISGTQAMDEADYYCQAWDSSTAVFGGGTKLTVLG
notes: human IgG1
B2: anti-mutCALR antibody clone 44 (antibody, human IgG1, lambda, V domains shown)
VH: EVQLVQSGAEVKKPGSSVKVSCKASGGTFSSYAISWVRQAPGQGLEWMGGIIPIFGTANYAQKFQGRVTITADESTSTAYMELSSLRSEDTAVYYCASSPLRGSGWYWHYYYGMDVWGQGTTVTVSS
VL: SYVLTQPPSVSAAPGKTARISCGGNNIRSKSVHWYQQKAGQAPVLVIYQDSKRPSGIPERFSGSNSGNTATLTISGTQAMDEADYYCQAWDSNTVVFGGGTKLTVLG
notes: human IgG1
B3: anti-mutCALR antibody clone 26 (antibody, human IgG1, lambda, V domains shown)
VH: EVQLVQSGAEVKKPGASVKVSCKVSGYTLTELSMQWVRQAPGKGLEWMGGFDPDDGETMYAEKFQGRLTVTEDTSTDTVYMELRSLTSEDTALYFCATSPGYDFFDYWGQGTLVTVSS
VL: SYVLTQPPSVSVAPGQTARITCGGNNIGSKSVHWYQQKPGQAPVLVVYDDSDRPSGIPERFSGSNSGNTATLTISRVEAGDEADYYCQVWDSSIDHLIFGGGTKVTVLG
notes: human IgG1
B4: anti-mutCALR antibody clone 27 (antibody, human IgG1, lambda, V domains shown)
VH: EVQLVQSGAEVKKPGASVKVSCKVSGYTLTELSMQWVRQAPGKGLEWMGGFDPDDGETMYAEKFQGRLTVTEDTSTDTVYMELRSLTSEDTALYFCATSPGYDFFDYWGQGTLVTVSS
VL: SYVLTQPPSVSVAPGQTARITCGGNNIGIKSVHWYQQKPGQAPVLVVYDDRDRPSGIPERFSGSNSGNTATLTINRVEAGDEADYYCQVWDSSNDLLIFGGGTKLTVLG
notes: human IgG1
B5: anti-mutCALR antibody clone 29 (antibody, human IgG1, lambda, V domains shown)
VH: EVQLVQSGAEVKKPGASVKVSCKVSGYTLTELSMQWVRQAPGKGLEWMGGFDPDDGETMYAEKFQGRLTVTEDTSTDTVYMELRSLTSEDTALYFCATSPGYDFFDYWGQGTLVTVSS
VL: SYVLTQPPSVSVAPGKTARITCGGNNIGSKSVHWYQQKPGQAPVLVVYDDSDRPSGIPERFSGSNSGNTATLTISRVEAGDEADYYCQVWDSSSDLLIFGGGAKLTVLG
notes: human IgG1
B6: anti-mutCALR antibody clone 28 (antibody, human IgG1, lambda, V domains shown)
VH: EVQLVQSGAEVKKPGASVKVSCKVSGYTLTELSMQWVRQAPGKGLEWMGGFDPDDGETMYAEKFQGRLTVTEDTSTDTVYMELRSLTSEDTALYFCATSPGYDFFDYWGQGTLVTVSS
VL: SYELTQPPSVSVAPGQTARITCGGNNIGSKSVHWYQQKPGQAPVLVVYDDSDRPSGIPERFSGSNSGNTATLTISRVEAGDEADYYCQVWDADSDQLIFGGGTKLTVLG
notes: human IgG1
B7: anti-mutCALR antibody clone 30 (antibody, human IgG1, lambda, V domains shown)
VH: EVQLVQSGAEVKKPGASVKVSCKVSGYTLTELSMQWVRQAPGKGLEWMGGFDPDDGETMYAEKFQGRLTVTEDTSTDTVYMELRSLTSEDTALYFCATSPGYDFFDYWGQGTLVTVSS
VL: SYVLTQPPSVSVAPGKTATITCGGNNIGTKSVHWYQQKPGQAPVLVVYDDSDRPSGIPERFSGSNSGNTATLTINRVEAGDEADYYCQVWDSSNDLLIFGGGTKLTVLG
notes: human IgG1

The assay has as its target T1, Recombinant MBP-mutCALR Type 1 fusion protein (human).
T1 construct: custom made at Cepter; also called recombinant mutCALR protein
Description: SPR, IgG captured, 1:1 fit, Exp. 1. On the procedure:
Experiment 1: Recombinant MBP-mutCALR Type 1 fusion protein was custom made at Cepter (cepterbiopartners.com). Data for the interaction of antibodies with recombinant MBP-mutCALR Type 1 fusion protein were collected at 25° C. on a Biacore 8K instrument (Cytiva, Marlborough, Mass.), and all reagents were obtained from Cytiva unless otherwise specified. The experiments were conducted using Tris-buffered saline (pH 7.2), 0.005% Surfactant P20, 1 mM CaCl₂) as running buffer. To prepare the capture surfaces, anti-human IgG (Fc) antibodies (Product #29234600) was amine-coupled onto a CM4 chip (Product #BR100534) under standard conditions using an Amine Coupling Kit (Product #BR100050). […] The kinetics parameters were obtained by applying 1:1 binding model to fit the data from multiple-cycle injection experiments using Biacore Insight Evaluation software.
A general note: Surface plasmon resonance follows binding to a sensor surface in real time, without labels.
In the case of B1, the Kd came to 1.64 nM, the koff came to 0.000297 s⁻¹ and the kon was determined as 181000 M⁻¹ s⁻¹.
Consider B2, for which the Kd turned out to be 3.84 nM, the off-rate (koff) amounted to 0.00101 s⁻¹ and the kon was 263000 M⁻¹ s⁻¹.
For the molecule B3, the dissociation constant Kd worked out at 9.84 nM, the koff came out at 0.00471 s⁻¹ and the kon was 478000 M⁻¹ s⁻¹.
For B4, in that order: 9.63 nM, 0.00366 s⁻¹ and 380000 M⁻¹ s⁻¹.
Take B5: the Kd came to 8.16 nM, the koff worked out at 0.00561 s⁻¹ and the kon was determined as 688000 M⁻¹ s⁻¹.
B6: the equilibrium dissociation constant (Kd) came out at 19.5 nM, the koff came out at 0.00897 s⁻¹ and the kon turned out to be 460000 M⁻¹ s⁻¹.
With B7, the Kd turned out to be 12.8 nM, the koff was 0.00295 s⁻¹ and the association rate constant (kon) stood at 231000 M⁻¹ s⁻¹.

For orientation: Kd means the concentration at which binding is half-saturated. Broadly, the koff is the first-order rate constant of dissociation. What is called kon is a measure of how fast the partners come together.
